Test results taken from patent US20150328292A1, “CASPASE POLYPEPTIDES HAVING MODIFIED ACTIVITY AND USES THEREOF” (BELLICUM PHARMACEUTICALS, INC., priority 2014, published 2015).
“Also recorded” adds a separate entry of the source.

System: HEK293T/16 cells
Test: SEAP reporter-based surrogate killing assay (basal activity and AP1903 IC50)
Type: cell-based, human
Settings: AP1903-independent SEAP activity, vs wild type
Procedure: FIG. 45 provides a schematic of an analysis of SEAP assays. […] of the mixture was seeded onto each well of a 96-well plate. […] For the assay, 4-methylumbelliferyl phosphate substrate was hydrolyzed by SEAP to 4-methylumbelliferon, a metabolite that can be excited with 364 nm and detected with an emission filter of 448 nm. Since SEAP is used as a marker for cell viability, reduced SEAP reading corresponds with increased icaspase-9 activities.
Early passage HEK293T/16 cells (ATCC, Manassas, Va.) were maintained in IMDM, GlutaMAX™ (Life Technologies, Carlsbad, Calif.) supplemented with 10% FBS, 100 U/mL penicillin, and 100 […] until transfection in a humidified, 37° C., 5% CO2/95% air atmosphere. Cells in logarithmic-phase growth were transiently transfected with 800 ng to 2 μg of expression plasmid encoding iCasp9 mutants and 500 ng of an expression plasmid encoding SRα promoter driven SEAP per million cells in 15-mL conical tubes. […] GeneJammer® Transfection Reagent at a ratio of 3 μl per ug of plasmid DNA was used to transiently transfect HEK293T/16 cells in the absence of antibiotics. 100 μl or 2 mL of the transfection mixture was added to each well in 96-well or 6-well plate, respectively.
Briefly, after 65° C. heat denaturation for 45 minutes to reduce background caused by endogenous (and serum-derived) alkaline phosphatases that are sensitive to heat, 5 μl of supernatants was added to 95 μl of PBS and added to 100 μl of substrate buffer, containing 1 μl of 100 mM 4-methylumbelliferyl phosphate (4-MUP; Sigma, St. Louis, Mo.) re-suspended in 2 M diethanolamine. Hydrolysis of 4-MUP by SEAP produces a fluorescent […] with excitation/emission (355/460 nm), which can be easily measured. Assays were performed in black opaque 96-well plates to minimize fluorescence leakage between wells (FIG. 45).

B1: T317S: chimeric modified caspase-9 polypeptide variant (protein)
chain: VDGFGDVGALESLRGNADLAYILSMEPCGHCLIINNVNFCRESGLRTRTGSNIDCEKLRRRFSSLHFMVEVKGDLTAKKMVLALLELARQDHGALDCCVVVILSHGCQASHLQFPGAVYGTDGCPVSVEKIVNIFNGTSCPSLGGKPKLFFIQACGGEQKDHGFEVASTSPEDESPGSNPEPDASPFQEGLRTFDQLDAISSLPTPSDIFVSYSTFPGFVSWRDPKSGSWYVETLDDIFEQWAHSEDLQSLLLRVANAVSVKGIYKQMPGCFNFLRKKLFFKTSASRA
basal activity / basal signaling (in words): lower basal activity; also recorded: reduce basal activity; also recorded: decrease in basal activity

B2: T317A: chimeric modified caspase-9 polypeptide variant (protein)
chain: VDGFGDVGALESLRGNADLAYILSMEPCGHCLIINNVNFCRESGLRTRTGSNIDCEKLRRRFSSLHFMVEVKGDLTAKKMVLALLELARQDHGALDCCVVVILSHGCQASHLQFPGAVYGTDGCPVSVEKIVNIFNGTSCPSLGGKPKLFFIQACGGEQKDHGFEVASTSPEDESPGSNPEPDAAPFQEGLRTFDQLDAISSLPTPSDIFVSYSTFPGFVSWRDPKSGSWYVETLDDIFEQWAHSEDLQSLLLRVANAVSVKGIYKQMPGCFNFLRKKLFFKTSASRA
basal activity / basal signaling (in words): lower basal activity; also recorded: reduce basal activity; also recorded: decrease in basal activity

B3: A316G: chimeric modified caspase-9 polypeptide variant (protein)
chain: VDGFGDVGALESLRGNADLAYILSMEPCGHCLIINNVNFCRESGLRTRTGSNIDCEKLRRRFSSLHFMVEVKGDLTAKKMVLALLELARQDHGALDCCVVVILSHGCQASHLQFPGAVYGTDGCPVSVEKIVNIFNGTSCPSLGGKPKLFFIQACGGEQKDHGFEVASTSPEDESPGSNPEPDGTPFQEGLRTFDQLDAISSLPTPSDIFVSYSTFPGFVSWRDPKSGSWYVETLDDIFEQWAHSEDLQSLLLRVANAVSVKGIYKQMPGCFNFLRKKLFFKTSASRA
basal activity / basal signaling (in words): lower basal activity

B4: P318A: chimeric modified caspase-9 polypeptide variant (protein, UniProt P55211 1-416, looked up, variant P318A)
chain: MDEADRRLLRRCRLRLVEELQVDQLWDALLSRELFRPHMIEDIQRAGSGSRRDQARQLIIDLETRGSQALPLFISCLEDTGQDMLASFLRTNRQAAKLSKPTLENLTPVVLRPEIRKPEVLRPETPRPVDIGSGGFGDVGALESLRGNADLAYILSMEPCGHCLIINNVNFCRESGLRTRTGSNIDCEKLRRRFSSLHFMVEVKGDLTAKKMVLALLELAQQDHGALDCCVVVILSHGCQASHLQFPGAVYGTDGCPVSVEKIVNIFNGTSCPSLGGKPKLFFIQACGGEQKDHGFEVASTSPEDESPGSNPEPDATAFQEGLRTFDQLDAISSLPTPSDIFVSYSTFPGFVSWRDPKSGSWYVETLDDIFEQWAHSEDLQSLLLRVANAVSVKGIYKQMPGCFNFLRKKLFFKTS
modifications: chimeric, fused to FKBP12v36
notes: chimeric modified caspase-9 polypeptide variant
basal activity / basal signaling (in words): no effect

B5: F319A: chimeric modified caspase-9 polypeptide variant (protein, UniProt P55211 1-416, looked up, variant F319A)
chain: MDEADRRLLRRCRLRLVEELQVDQLWDALLSRELFRPHMIEDIQRAGSGSRRDQARQLIIDLETRGSQALPLFISCLEDTGQDMLASFLRTNRQAAKLSKPTLENLTPVVLRPEIRKPEVLRPETPRPVDIGSGGFGDVGALESLRGNADLAYILSMEPCGHCLIINNVNFCRESGLRTRTGSNIDCEKLRRRFSSLHFMVEVKGDLTAKKMVLALLELAQQDHGALDCCVVVILSHGCQASHLQFPGAVYGTDGCPVSVEKIVNIFNGTSCPSLGGKPKLFFIQACGGEQKDHGFEVASTSPEDESPGSNPEPDATPAQEGLRTFDQLDAISSLPTPSDIFVSYSTFPGFVSWRDPKSGSWYVETLDDIFEQWAHSEDLQSLLLRVANAVSVKGIYKQMPGCFNFLRKKLFFKTS
modifications: chimeric, fused to FKBP12v36
notes: as for B4
basal activity / basal signaling (in words): no effect
